In patent US20170173105A1, “AUTOASSEMBLING PEPTIDES FOR THE TREATMENT OF PULMONARY LEAKAGE” (3-D MATRIX, LTD., priority 2014, published 2017):

Columns and labels:
[1] = Rheological properties of peptide solutions and hydrogels after salt ionic strength adjustment; type: physicochemical
Description: Based on the visual observation of the effect of salt ionic strength on the properties of the peptide solutions, the effect on the rheological properties of the peptide solutions after adjusting their ionic strength level with NaCl to 0.7 M (PuraMatrix®), 0.2 M (KLD12) or 0.02 M (IEIK13), which is closely below the critical ionic strength at which each peptide becomes cloudy, was evaluated. If the ionic strength levels with NaCl of peptide solutions are higher than 0.9 M (PuraMatrix®), 0.3 M (KLD12) or 0.03 M (IEIK13), the peptide solution begin phase separation becoming cloudy and weak. The rheological property of PuraMatrix®, KLD12 and IEIK13 solutions was higher after adjusting their ionic strength level with NaCl to 0.7 M (PuraMatrix®), 0.2 M (KLD12) or 0.02 M (IEIK13), The results are shown in FIG. 10 for KLD12 1%, FIG. 11 for IEIK13 1%, and FIG. 12 for PuraMatrix® 1%, respectively. Frequency sweep tests were performed from 1 rad/s to 10 rad/s at 1 Pa.
Based on the results of the effect on the rheological properties of the peptide solutions after adjusting their ionic strength level with NaCl to 0.7 M (PuraMatrix®), 0.2 M (KLD12) or 0.02 M (IEIK13), the effect on the rheological properties of the peptide solution at various salt ionic strengths was evaluated. […] The results are shown in FIG. 13 for PuraMatrix® 1% solution and in FIG. 14 for IEIK13 1% solution. Frequency sweep tests were performed from 1 rad/sec to 10 rad/sec at 1 Pa and the storage modulus at 1 rad/sec was selected for data.
Based on the results of the effect on the rheological properties of the peptide solutions after adjusting their ionic strength levels, the effect on the rheological properties of the peptide hydrogels after DMEM treatment for 10 min was evaluated. […] The results are shown in FIG. 15 for PuraMatrix® 1% hydrogels and in FIG. 16 for IEIK13 1% hydrogels, both after DMEM treatment for 10 min Frequency sweep tests were performed from 1 rad/sec to 10 rad/sec at 1 Pa and the storage modulus at 1 rad/sec was selected for data.
Based on the results of the effect on the rheological properties of the peptide solutions and hydrogels after adjusting their ionic strength levels with NaCl, the effect of various salts (KCl, MgCl2, and CaCl2) was also evaluated. The rheological property of PuraMatrix® solutions increases with ionic strength adjustment at 0.15 M of all the salts. Increases of the rheological property of PuraMatrix® solutions with various salts were not predominantly different. However, increases of the rheological property of PuraMatrix® solutions may vary depending on the salting out constant, K of each salt. Constant K is a constant in Cohen's equation: log S=B−KI, where S is solubility, B is idealized solubility, K is salting out constant, and I is ionic strength. With a higher value of constant K and ionic strength of salts, solubility of the peptide may decrease resulting in strong peptide self-assembly with increased hydrophobic effect and higher rheological properties of the peptide solution. The constant K of NaCl may be higher than the other salts. […] The results are shown in FIG. 17 for PuraMatrix® 1% solution before DMEM treatment, and in FIG. 18 for PuraMatrix® 1% hydrogels after DMEM treatment for 10 min.
In accordance with one or more embodiments, IEIK13, KLD12, and PuraMatrix® may be dissolved both in salt buffer such as NaCl and at an elevated pH level adjusted with alkali salt buffer such as NaOH to keep their salt ionic strength under their critical salt points as well as their pH level to about 2.5˜4.0, so that they may have stiffer properties. With respect to PuraMatrix®, […] and IEIK13, the peptide solutions are still clear with 0.9% NaCl (ionic strength: 0.15 M) at pH 3.4 adjusted with NaOH. […] The effect of salt ionic strength and pH adjustment on the rheological properties of PuraMatrix® 2.5% solution are shown in FIG. 20. […]

[2] = Appearance of 1.5% peptide solutions with various salts at room temperature; type: physicochemical; conditions: for Appearance: KLD12 solution, room temperature
Description: The effect of salt ionic strength level on the properties of peptide solutions was evaluated to identify optimized salt ionic strength levels for the peptides as described herein. Increasing the salt ionic strength level of PuraMatrix® and other peptides may generally improve its function and mechanical strength for various clinical applications. To adjust the salt ionic strength of the peptide solutions by way of example, various salt buffer solutions including NaCl, KCl, MgCl2, CaCl2 and DPBS (10×) were added to 2 mL of 1.5% peptide solutions.

## Lys-Leu-Asp-Leu-Lys-Leu-Asp-Leu-Lys-Leu-Asp-Leu (Ac-KLDLKLDLKLDL-NH2) [KLD12]
[1]; 0.9% NaCl (ionic strength: 0.15 M) at pH 3.4 adjusted with NaOH
  appearance of peptide solutions with salt and pH adjustment: still clear
[1]; NaCl
  ionic strength level with NaCl at which the peptide solution begins phase separation becoming cloudy and weak: > 0.3 M
[1]; NaCl to 0.7 M (PuraMatrix®), 0.2 M (KLD12) or 0.02 M (IEIK13), 1% solutions
  rheological property of solutions after ionic strength adjustment with NaCl: higher
[2]; CaCl2 0 M, ionic strength 0 M, conc. 1.5%
  Appearance: Clear, thick gel
[2]; CaCl2 0.05 M, ionic strength 0.15 M, conc. 1.48%
  Appearance: Clear, thick, stiffer gel
[2]; CaCl2 0.067 M, ionic strength 0.2 M, conc. 1.47%
  Appearance: Clear, thick, stiffer gel
[2]; CaCl2 0.083 M, ionic strength 0.25 M, conc. 1.46%
  Appearance: Clear, thick, stiffer gel
[2]; CaCl2 0.1 M, ionic strength 0.3 M, conc. 1.45%
  Appearance: Clear, thick, stiffer gel
[2]; CaCl2 0.117 M, ionic strength 0.35 M, conc. 1.44%
  Appearance: Clear, thick, stiffer gel
[2]; CaCl2 0.133 M, ionic strength 0.4 M, conc. 1.43%
  Appearance: Slightly cloudy, thick, stiffer gel
[2]; CaCl2 0.15 M, ionic strength 0.45 M, conc. 1.43%
  Appearance: Slightly cloudy, brittle gel
[2]; CaCl2 0.167 M, ionic strength 0.5 M, conc. 1.42%
  Appearance: Cloudy, phase-separated
[2]; KCl 0 M, ionic strength 0 M, conc. 1.5%
  Appearance: Clear, thick gel
[2]; KCl 0.05 M, ionic strength 0.5 M, conc. 1.48%
  Appearance: Clear, thick, stiffer gel
[2]; KCl 0.1 M, ionic strength 0.1 M, conc. 1.45%
  Appearance: Clear, thick, stiffer gel
[2]; KCl 0.15 M, ionic strength 0.15 M, conc. 1.43%
  Appearance: Clear, thick, stiffer gel
[2]; KCl 0.2 M, ionic strength 0.2 M, conc. 1.4%
  Appearance: Clear, thick, stiffer gel
[2]; KCl 0.25 M, ionic strength 0.25 M, conc. 1.38%
  Appearance: Clear, thick, stiffer gel
[2]; KCl 0.3 M, ionic strength 0.3 M, conc. 1.35%
  Appearance: Slightly cloudy, thick, stiffer gel
[2]; KCl 0.35 M, ionic strength 0.35 M, conc. 1.32%
  Appearance: Slightly cloudy, brittle gel
[2]; KCl 0.4 M, ionic strength 0.4 M, conc. 1.3%
  Appearance: Cloudy, phase-separated
[2]; MgCl2 0 M, ionic strength 0 M, conc. 1.5%
  Appearance: Clear, thick gel
[2]; MgCl2 0.05 M, ionic strength 0.15 M, conc. 1.48%
  Appearance: Clear, thick, stiffer gel
[2]; MgCl2 0.067 M, ionic strength 0.2 M, conc. 1.47%
  Appearance: Clear, thick, stiffer gel
[2]; MgCl2 0.083 M, ionic strength 0.25 M, conc. 1.46%
  Appearance: Clear, thick, stiffer gel
[2]; MgCl2 0.1 M, ionic strength 0.3 M, conc. 1.45%
  Appearance: Clear, thick, stiffer gel
[2]; MgCl2 0.117 M, ionic strength 0.35 M, conc. 1.44%
  Appearance: Clear, thick, stiffer gel
[2]; MgCl2 0.133 M, ionic strength 0.4 M, conc. 1.43%
  Appearance: Slightly cloudy, thick, stiffer gel
[2]; MgCl2 0.15 M, ionic strength 0.45 M, conc. 1.43%
  Appearance: Slightly cloudy, brittle gel
[2]; MgCl2 0.167 M, ionic strength 0.5 M, conc. 1.42%
  Appearance: Cloudy, phase-separated
[2]; NaCl 0 M, ionic strength 0 M, conc. 1.5%
  Appearance: Clear, thick gel
[2]; NaCl 0.05 M, ionic strength 0.5 M, conc. 1.48%
  Appearance: Clear, thick, stiffer gel
[2]; NaCl 0.1 M, ionic strength 0.1 M, conc. 1.45%
  Appearance: Clear, thick, stiffer gel
[2]; NaCl 0.15 M, ionic strength 0.15 M, conc. 1.43%
  Appearance: Clear, thick, stiffer gel
[2]; NaCl 0.2 M, ionic strength 0.2 M, conc. 1.4%
  Appearance: Clear, thick, stiffer gel
[2]; NaCl 0.25 M, ionic strength 0.25 M, conc. 1.38%
  Appearance: Clear, thick, stiffer gel
[2]; NaCl 0.3 M, ionic strength 0.3 M, conc. 1.35%
  Appearance: Slightly cloudy, thick, stiffer gel
[2]; NaCl 0.35 M, ionic strength 0.35 M, conc. 1.32%
  Appearance: Slightly cloudy, brittle gel
[2]; NaCl 0.4 M, ionic strength 0.4 M, conc. 1.3%
  Appearance: Cloudy, phase-separated
[2]; up to the ionic strength at which solutions stay clear
  apparent stiffness on salt ionic strength increase: increased
